This is an account of results in patent publication US20230265217A1 (TWIST BIOSCIENCE, published 2023).

A word on the Kd: it is a measure of binding affinity in units of concentration.

Read-outs that look alike come from different tables or passages of the source.

What all share (experiment): Carterra SPR
Assay [1] deals with T1, Antibody 178-10_His CA_W152C_L452R_D614G (27081) (SARS-CoV-2, UniProt P0DTC2 14-685).
T1 construct: domain: S1; also called CA variant S1; California variant S1

Assay [2] addresses T2, Antibody 178-09_His B.1.1.7 (27080) (SARS-CoV-2, UniProt P0DTC2 14-685).
T2 construct: domain: S1; also called TB178-9

For assay [3], the target named is T3, Antibody 178-08_His 501.V2 (27079) (SARS-CoV-2, UniProt P0DTC2 14-685).
T3 construct: domain: S1; also called TB178-8

For assay [4], the target named is T1, Antibody 178-10_His …. This is another data set of the same source.
Assay [5] deals with T4, S1 RBD L452R E484Q (Acro) (SARS-CoV-2, UniProt P0DTC2 319-537).
T4 construct: domain: S1 RBD; also called SARS-COV-2 RBD India Var; L452R E484Q S1; India variant mutation L452R E484Q

For assay [6], the target named is T2, Antibody 178-09_His B.1.1.7 (27080). The source holds these as a separate data set.
Assay [7] deals with T3, Antibody 178-08_His 501.V2 (27079). This is another data set of the same source.
Assay [8] has as its target T5, SARS-CoV-2 S1 [S1N-C52H4] (SARS-CoV-2, UniProt P0DTC2 16-685).
T5 construct: domain: S1

For assay [9], the target named is T4, S1 RBD L452R E484Q (Acro). The source holds these as a separate data set.

B1: 6A-63 (VHH)
VHH: EVQLVESGGGLVQPGGSLRLSCAASGQTFNMGWFRQAPGKEREFVAAIGSGGSTSYADSVKGRFTISADNSKNTAYLQMNSLKPEDTAVYYCWRLGNDYFDYWGQGTLVTVSS
Take B1: the binding result in assay [1] was “no binding”.

B2: 3-24 (VHH, not shown: a dimerising Fc or GST)
VHH: EVQLVESGGGLVQPGGSLRLSCAASGINFSRYGMGWFRQAPGKEREFVASITYLGRTNYADSVKGRFTISADNSKNTAYLQMNSLKPEDTAVYYCALRVRPYGQYDWGQGTLVTVSS
As for B2, the figures for the dissociation constant Kd in [2] and in assay [3] were 2610 nM and 586 nM, respectively. Besides, the binding result in assay [4] and in [5] was “no binding” in each case.

B3: 7-22 (VHH, not shown: a dimerising Fc or GST)
VHH: EVQLVESGGGLVQPGGSLRLSCAASGRTITRYTMGWFRQAPGKEREFVASITSGGSTAYADSVKGRFTISADNSKNTAYLQMNSLKPEDTAVYYCAKQDVGKPFDWGQGTLVTVSS
For B3, the Kd in [2] came out at 41.7 nM; in [4] it was 698 nM. Besides, the binding result in assay [3] and in assay [5] was “no binding” each time.

B4: 7-45 (VHH)
VHH: EVQLVESGGGLVQPGGSLRLSCAASGRTLSRYTMGWFRQAPGKEREFVASITSGGSTNYADSVKGRFTISADNSKNTAYLQMNSLKPEDTAVYYCAKEDVGKPFDWGQGTLVTVSS
B4: the Kd in assay [2] worked out at 43.4 nM. Also, the binding result in assay [3], in assay [4] and in assay [5] was “no binding” in each case.

B5: 7-41 (VHH)
VHH: EVQLVESGGGLVQPGGSLRLSCAASGRTFSTYVMGWFRQAPGKEREFVASISSRGITHYADSVKGRFTISADNSKNTAYLQMNSLKPEDTAVYYCAKEDVGKPFDWGQGTLVTVSS
For the molecule B5, the Kd is 35.6 nM in assay [2] and 95.5 nM in assay [4]. In addition, the binding result in assay [3] and in assay [5] was “no binding” each time.

B6: 7-40 (VHH)
VHH: EVQLVESGGGLVQPGGSLRLSCAASGRTFRRYTMGWFRQAPGKEREFVASITKFGSTNYADSVKGRFTISADNSKNTAYLQMNSLKPEDTAVYYCAKEDVGKPFDWGQGTLVTVSS
Regarding B6, the binding result in assay [2], in assay [3], in assay [4] and in assay [5] was “no binding” in each case.

B7: 7-26 (VHH)
VHH: EVQLVESGGGLVQPGGSLRLSCAASGSTFSINAMGWFRQAPGKEREFVAGITSSGGYTNYADSVKGRFTISADNSKNTAYLQMNSLKPEDTAVYYCAADGVPEYSDYASGPVWGQGTLVTVSS
On to B7, for which the Kd in [2] came to 22.7 nM; in assay [3], 74.9 nM; in [4], 34.8 nM; in assay [6], 22.7 nM; in assay [7], 74.9 nM; in [1] it was 34.8 nM.

B8: 3-31 (VHH)
VHH: EVQLVESGGGLVQPGGSLRLSCAASGSTFSINAMGWFRQAPGKEREFVAGITSSGGYTNYADSVKGRFTISADNSKNTAYLQMNSLKPEDTAVYYCAADGVPEYSDYASGPVWGQGTLVTVSS
notes: also called 3-31_ExpiCHO
Take B8: the Kd in assay [2] amounted to 16.1 nM; in [3] it was 96700 nM; in assay [4] it was 41 nM; in assay [6], 16.1 nM; in assay [7], 96700 nM; in [1] it was 41 nM. The same molecule had a Kd in assay [8] of 4.12 nM.

B9: 7-24 (VHH, not shown: a dimerising Fc or GST)
VHH: EVQLVESGGGLVQPGGSLRLSCAASGFTFSRHAMNWFRQAPGKEREFVSTITGSGGSTNYADSVKGRFTISADNSKNTAYLQMNSLKPEDTAVYYCAREVGLYYYGSGSSSRRLLGRIDYYFDYWGQGTLVTVSS
For B9, the binding result in assay [2], in assay [3], in assay [4] and in assay [5] was “no binding” in each case.

B10: 8-3 (VHH, not shown: a dimerising Fc or GST)
VHH: EVQLVESGGGLVQPGGSLRLSCAASGTTLDYYAMGWFRQAPGKEREFVAAISWSGGSTAYADSVKGRFTISADNSKNTAYLQMNSLKPEDTAVYYCAREDYYDSSGYSWGQGTLVTVSS
Turning to B10, the equilibrium dissociation constant (Kd) came out at 40.5 nM in assay [2], 1.7 nM in [3] and 100 nM in assay [4]. In addition, the binding result in [5] was “no binding”.

B11: 6A-3 (VHH)
VHH: EVQLVESGGGLVQPGGSLRLSCAASGFTFSPSWMGWFRQAPGKEREFVATINEYGGRNYADSVKGRFTISADNSKNTAYLQMNSLKPEDTAVYYCARVDRDFDYWGQGTLVTVSS
Consider B11, for which binding in assay [1] was characterised by a dissociation constant (Kd) of 26.8 nM.

B12: 3-17 (VHH, not shown: a dimerising Fc or GST)
VHH: EVQLVESGGGLVQPGGSLRLSCAASGRTSSSAVMGWFRQAPGKEREFVAAINRGGSTIYVDSVKGRFTISADNSKNTAYLQMNSLKPEDTAVYYCATGPYRSYFARSYLWGQGTLVTVSS
Regarding B12, the binding result in assay [2], in [3], in [4] and in assay [5] was “no binding” in each case.

B13: 7-09 (VHH)
VHH: EVQLVESGGGLVQPGGSLRLSCAASGGTFSSIGMGWFRQAPGKEREFVAAISWDGGATAYADSVKGRFTISADNSKNTAYLQMNSLKPEDTAVYYCAKEDVGKPFDWGQGTLVTVSS
notes: also called 7-9
In the case of B13, the Kd in assay [2] was determined as 23.2 nM; in assay [4], 38.7 nM; in [5], 177000 nM; in assay [6], 23.2 nM; in assay [1] it was 38.7 nM; in [9], 177000 nM. Moreover, in [3], the binding result is “no binding”.

B14: 5A-1 (VHH)
VHH: EVQLVESGGGLVQPGGSLRLSCAASGGTFSSIGMGWFRQAPGKEREFVAAISWDGGATAYADSVKGRFTISADNSKNTAYLQMNSLKPEDTAVYYCAKEDVGKPFDWGQGTLVTVSS
Regarding B14, in assay [1], the Kd was determined as 12.7 nM.

B15: 3-28 (VHH, not shown: a dimerising Fc or GST)
VHH: EVQLVESGGGLVQPGGSLRLSCAASGFTFRRYDMGWFRQAPGKEREFVSAISGGLAYYADSVKGRFTISADNSKNTAYLQMNSLKPEDTAVYYCAVDLSGDAVYDWGQGTLVTVSS
B15: the equilibrium dissociation constant (Kd) was 16.6 nM in assay [2], 22 nM in [3], 16.6 nM in assay [6] and 22 nM in [7]. Further, the binding result in assay [4] and in [5] was “no binding” in each case.

B16: 7-30 (VHH, not shown: a dimerising Fc or GST)
VHH: EVQLVESGGGLVQPGGSLRLSCAASGRTFSMHAMGWFRQAPGKEREFVASISSQGRTNYADSVKGRFTISADNSKNTAYLQMNSLKPEDTAVYYCAAEVRNGSDYLPIDWGQGTLVTVSS
For B16, the Kd in [2] came to 32 nM; in [4], 55.9 nM; in [6], 32 nM; in [1] it was 55.9 nM. In addition, the binding result in [3] and in [5] was “no binding” throughout.
